The numbers were not newly measured in article PMC2833280, which cites them from elsewhere.

What all share (assay): kinetics
Series [1] addresses Lys443 (UniProt position 443, IVWRKKIGIHE). To be noted: enzyme-ATP complex and free CMPr (kcat/Km).
Series [2] addresses Glu380 (UniProt position 380, TRWTGEFATHG).
The target of series [3] is Lys443 (UniProt position 443, TVNRPKLGVHE). Conditions: enzyme-substrate complexes (kcat).

For “Carbapenam synthetase (CPS, CarA) (Pectobacterium carotovorum (printed 'Pectobacterium carotorova'; formerly Erwinia carotovora))”, the pKa (usually the pH at which an ionisable group is half protonated) is given as 10.0 ± 0.1 in series [1]; 7.8 ± 0.1 in series [2] (enzyme-ATP complex and free CMPr (kcat/Km)); 7.4 ± 0.1 in series [2] (enzyme-substrate complexes (kcat)).
On to “beta-Lactam synthetase (beta-LS) (Streptomyces clavuligerus (printed 'Streptomyces clavuligerous'))”, for which the pKa in series [3] is recorded as 8.07 ± 0.05.
